Measured values as given in patent publication US20190119366A1 (ADC THERAPEUTICS, published 2019).

T1: recombinant human KAAG1 (Kidney associated antigen 1) (human, UniProt Q9UBP8 1-84)
T1 construct: also called KAAG1 protein
T1 sequence: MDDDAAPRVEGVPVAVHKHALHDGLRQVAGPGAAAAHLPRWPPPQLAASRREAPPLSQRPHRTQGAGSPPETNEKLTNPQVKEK


Legend:
[1] = molecular target: T1, recombinant human KAAG1 (Kidney …); test: SPR (BioRad ProteOn XPR36): antibody captured on an anti-human IgG Fc surface, KAAG1 injected as analyte, 1:1 Langmuir fit
Procedure: (§1) Immediately after the activation, a 13 μg/mL solution of anti-human IgG Fc fragment specific in 10 mM NaOAc pH 4.5 was injected in the analyte direction at a flow rate of 25 μL/min until approximately 8000 resonance units (RUs) were immobilized. Remaining active groups were quenched by a 300 s injection of 1M ethanolamine at 30 μL/min in the analyte direction, and this also ensures mock-activated interspots are created for blank referencing. The screening of the 3A4 variants for binding to KAAG1 occurred in two steps: an indirect capture of 3A4 variants from cell supernatant onto the anti-human IgG Fc fragment specific surface in the ligand direction(vertical) followed by a KAAG1 injection in the analyte direction. Firstly, one buffer injection for 30 s at 100 uL/min in the ligand direction was used to stabilize the baseline. […] Four to five 3A4 variants along with wild-type 3A4 were simultaneously injected in individual ligand channels for 240 s at flow 25 μL/min. […] The first ligand channel was left empty to use as a blank control if required. This 3A4 capture step was immediately followed by two buffer injections in the analyte direction to stabilize the baseline, and then the gel filtration purified KAAG1 was injected. For a typical screen, five KAAG1 concentrations (8, 2.66, 0.89, 0.29, and 0.098 nM) and buffer control were simultaneously injected in individual analyte channels at 50 μL/min for 120 s with a 600s dissociation phase, resulting in a set of binding sensorgrams with a buffer reference for each of the captured 3A4 variants. The anti-human IgG Fc fragment specific—3A4 complexes were regenerated by a 18 s pulse of 0.85% phosphoric acid for 18 s at 100 μL/min to prepare the anti-human IgG Fc fragment specific surface for the next injection cycle. Sensorgrams were aligned and double-referenced using the buffer blank injection and interspots, and the resulting sensorgrams were analyzed using ProteOn Manager software v3.0.

[2] = molecular target: T1, recombinant human KAAG1 (Kidney …); test: SPR (BioRad ProteOn XPR36); fold difference of KD relative to LcHc
Procedure: as §1

[3] = molecular target: T1, recombinant human KAAG1 (Kidney …); test: not described; list of antibodies generated

Binder | Kd [1] [nM] | koff [1] [s⁻¹] | kon [1] [M⁻¹ s⁻¹] | Fold diff. [2] | binding result [3]
humanized 3A4 antibody Lh1Hh2 (antibody, human IgG1, kappa, V domains shown, Human IgG1/kappa) VH: QIQLVQSGAEVKKPGASVKVSCKASGYTFTDDYMSWVRQAPGQGLEWMGDINPYNGDTNYNQKFKGRVTITADKSTSTAYMELSSLRSEDTAVYYCARDPGAMDYWGQGTLVTVSS VL: DIVMTQTPLSLPVTPGEPASISCRSSQSLLHSNGNTYLEWYLQKPGQSPQLLIYTVSNRFSGVPDRFSGSGSGTDFTLKISRVEAEDVGVYYCFQGSHVPLTFGQGTKLEIKR | 0.211 | 0.00119 | 5.65e+06 | 13.2 | –
humanized 3A4 antibody Lh1Hh3 (antibody, human IgG1, kappa, V domains shown, Human IgG1/kappa) VH: QIQLVQSGAEVKKPGASVKVSCKASGYTFTDDYMSWVRQAPGQGLEWIGDINPYNGDTNYNQKFKGRATLTVDKSTSTAYMELSSLRSEDTAVYYCARDPGAMDYWGQGTLVTVSS VL: DIVMTQTPLSLPVTPGEPASISCRSSQSLLHSNGNTYLEWYLQKPGQSPQLLIYTVSNRFSGVPDRFSGSGSGTDFTLKISRVEAEDVGVYYCFQGSHVPLTFGQGTKLEIKR | 0.149 | 0.00096 | 6.46e+06 | 9.3 | –
humanized 3A4 antibody Lh1Hh4 (antibody, human IgG1, kappa, V domains shown, Human IgG1/kappa) VH: QIQLVQSGAEVKKPGASVKVSCKASGYTFTDDYMSWVKQAPGQGLEWIGDINPYNGDTNYNQKFKGKATLTVDKSTSTAYMELSSLRSEDTAVYYCARDPGAMDYWGQGTLVTVSS VL: DIVMTQTPLSLPVTPGEPASISCRSSQSLLHSNGNTYLEWYLQKPGQSPQLLIYTVSNRFSGVPDRFSGSGSGTDFTLKISRVEAEDVGVYYCFQGSHVPLTFGQGTKLEIKR | 0.149 | 0.000764 | 5.14e+06 | 9.3 | –
humanized 3A4 antibody Lh2Hh1 (antibody, human IgG1, kappa, V domains shown, Human IgG1/kappa) VH: QVQLVQSGAEVKKPGASVKVSCKASGYTFTDDYMSWVRQAPGQGLEWMGDINPYNGDTNYNQKFKGRVTITADTSTSTAYMELSSLRSEDTAVYYCARDPGAMDYWGQGTLVTVSS VL: DVVMTQTPLSLPVTPGEPASISCRSSQSLLHSNGNTYLEWYLQKPGQSPKLLIYTVSNRFSGVPDRFSGSGSGTDFTLKISRVEAEDVGVYYCFQGSHVPLTFGQGTKLEIKR | 0.341 | 0.00237 | 6.97e+06 | 21.3 | –
3A2 anti-KAAG1 antibody (antibody, V domains shown, Variable regions only; Isolated from a Fab library) VH: EIQLQQSGPELVKPGASVKMSCKTSGYTFTDYNMHWVKQKPGQGLEWIGYINPYNDVTEYNEKFKGRATLTSDKSSSTAYMDLSSLTSDDSAVYFCAWFGLRQWGQGTLVTVST VL: not shown | – | – | – | – | binds
3F6 anti-KAAG1 antibody (antibody, V domains shown, Variable regions only; Isolated from a Fab library) VH: EVQLQQSGPELVKPGASVKMSCKASGYIFTEYNIHWVKQKPGQGPEWIGNINPYNDVTEYNEKFKGKATLTSDKASSTAYMDLSSLTSEDSAVYYCARWGLRNWGQGTLVTVSA VL: not shown | – | – | – | – | binds
3E8 anti-KAAG1 antibody (antibody, V domains shown, Variable regions only; Isolated from a Fab library) VH: EVQLQQSVPELVKPGASVKMSCKTSGYTFTEYNMHWVKQKPGQGPEWIGNINPYNNVTEYNEKFKGKATLTSDKSSSTAYLDLSSLTSEDSAVYYCARWGLRNWGQGTLVTVSA VL: not shown | – | – | – | – | binds
3E10 anti-KAAG1 antibody (antibody, V domains shown, Variable regions only; Isolated from a Fab library) VH: EVQLQQSGPELVKPGASVKISCKASGDTFTDYYMNWVKQSHGKSLEWIGDINPNYGGITYNQKFKGKATLTVDTSSSTAYMELRGLTSEDSAVYYCQAYYRNSDYWGQGTTLTVSS VL: DIVMTQAAPSVPVTPGESVSISCRSSKSLLHSNGNTYLYWFLQRPGQSPQLLIYRMSNLASGVPDRFSGSGSGTAFTLRISRVEAEDVGVYYCMQHLEYPYTFGGGTKLEIK | – | – | – | – | binds
3A9 anti-KAAG1 antibody (antibody, V domains shown, Variable regions only; Isolated from a Fab library) VH: QVQVQQPGAELVRPGASVTLSCKASGYIFTDYEVHWVRQRPVHGLEWIGVIDPETGDTAYNQKFKGKATLTADKSSSTAYMELSSLTAEDSAVYYCIGYADYWGQGTTLTVSS VL: DIVMTQSPSSLAMSLGQKVTMSCKSSQSLLNSNNQLNYLAWYQQKPGQSPKLLVYFASTRKSGVPDRFIGSGSGTDFTLTITSVQAEDLADYFCQQHFNTPLTFGAGTKLELK | – | – | – | – | binds
